The target in experiment [1] is T1, SARS-HCoV spike protein (SARS-coronavirus (Tor-3 strain), UniProt P59594 14-1255). Kind of experiment: ELISA, OD on native virus against OD on heat-denatured virus.
Experiment [2] concerns the target T1, SARS-HCoV spike protein. The experiment in a line: ELISA, virus heated 100 C 10 min, coated at 32 ng/well.
The target in experiment [3] is T1, SARS-HCoV spike protein. Kind of experiment: ELISA, native gradient purified virus coated at 32 ng/well.

Substitutions are numbered along the chain they refer to.

B1: F26G6 (antibody, V domains shown)
VH: QVQLQQPGAELVKPGASVKVSCKASGYTFTNYWIHWVKQRPGQGLEWIGEINPGNGRTNYNGNFMNKATLTVDKSSNTAYMQLSSLTSEDSAVYHCARLDYWGQGTTLTVSS
VL: ELVMTQSPASLSVATGKKVTIRCISSTDIDDDMNWYQQKAGKPPKLLISEGNIFSPGVPSRFSSSGNGTDFVFTVENTLSEDVADNYCLQSDNMPFTFGSGTKLGIKR
On to B1, for which, in the experiment with SARS-HCoV spike protein [1], the “O.D. Reduction, Fold” value is 2.7 fold and the “O.D. Reduction, Percent” value was found to be 62%. The “ELISA OD 405 nm, Denatured Lysate” value in the experiment with SARS-HCoV spike protein [2] was 0.6 OD 405 nm. The “ELISA OD 405 nm, Viral Lysate (native)” value with SARS-HCoV spike protein [3] came to 1.6 OD 405 nm.

B2: F26G8 (antibody, V domains shown)
VH: VQLLESGAELVKPGASVKVSCKASGYTFTSYWIHWVKQRPGQGLEWIGEINPSNGRTNYNGNFESKATLTVDKSSNTAYMHLSSLTYEDSAVYHCTRLDYWGQGTTLTVSS
VL: B1 VL with A14I, S26N, M33L, Y36S, Q38L, K42E, V75I, D85N, L89F, G105E
Consider B2, for which, in the experiment with SARS-HCoV spike protein [1], the “O.D. Reduction, Fold” value is 2.8 fold and the “O.D. Reduction, Percent” value is 29%. In addition, in the experiment with SARS-HCoV spike protein [2], the “ELISA OD 405 nm, Denatured Lysate” value is 0.497 OD 405 nm. In addition, the “ELISA OD 405 nm, Viral Lysate (native)” value with SARS-HCoV spike protein [3] is 1.41 OD 405 nm.

B3: F26G18 (antibody, V domains shown)
VH: LVQLEESGTVLPRPGASVKMSCKASGYTFTSYWMHWVKQRPGQGLEWIGAIYPGNSDTNYNQKFKGRATLTAVTSTSTASMELSSLTNEDSAVYYCTRDGYGSLYYYAMDFWGQGTSVTVSS
VL: ELVMTQSPSSLSASLGDRVTISCRASQDISNYLNWYQQKPDGTVKLLIYYTSRLHAGVPSRFSGSGSGTDYSLTISNLEQEDIATYFCQQGYTLPYTFGGGTKLEIKR
As to B3, in the experiment with SARS-HCoV spike protein [1], the “O.D. Reduction, Fold” value is 3.6 fold and the “O.D. Reduction, Percent” value stood at 72%. The “ELISA OD 405 nm, Denatured Lysate” value in the experiment with SARS-HCoV spike protein [2] turned out to be 0.501 OD 405 nm. Further, the “ELISA OD 405 nm, Viral Lysate (native)” value in the experiment with SARS-HCoV spike protein [3] worked out at 1.81 OD 405 nm.

B4: F26G19 (antibody, V domains shown)
VH: EVQLEESGTVLARPGASVKMSCKASGYTFTTYRMHWIKQRPGQGLEWIGAIYPGNSDTTYNQKFKDKAKLTAVTSTSSAYMELSSLTNEDSAVYFCTREGIPQLLRTLDYWGQGTSVTVSS
VL: DILMTQSPSSLSASLGERVSLTCRASQEISGYLSWLQEKPDGTIKRLIYAASTLDSGVPKRFSGSRSGSDYSLTISSLESEDFADYYCLQYVSYPWTFGGGTKLEIKR
As to B4, in the experiment with SARS-HCoV spike protein [1], the “O.D. Reduction, Fold” value is 6 fold and the “O.D. Reduction, Percent” value is 83%. Besides, the “ELISA OD 405 nm, Denatured Lysate” value with SARS-HCoV spike protein [2] is 0.253 OD 405 nm. Also, in the experiment with SARS-HCoV spike protein [3], the “ELISA OD 405 nm, Viral Lysate (native)” value worked out at 1.5 OD 405 nm.
